Assay results taken from patent EP3460067A1, “PROCESS FOR ENZYMATIC OXIDATION OF LINEAR CARBOHYDRATES” (Technische Universität München, priority 2017, dated 2019).

Assays:
SpsADH = target: T1, SpsADH (Sphingomonas sp. A1, UniProt A0A075B5H4); assay: photometric SpsADH enzyme assay, oxidation of substrates (NAD+/NADH at 340 nm); format: biochemical, Sphingomonas species A1
T1 sequence (A0A075B5H4 1-258): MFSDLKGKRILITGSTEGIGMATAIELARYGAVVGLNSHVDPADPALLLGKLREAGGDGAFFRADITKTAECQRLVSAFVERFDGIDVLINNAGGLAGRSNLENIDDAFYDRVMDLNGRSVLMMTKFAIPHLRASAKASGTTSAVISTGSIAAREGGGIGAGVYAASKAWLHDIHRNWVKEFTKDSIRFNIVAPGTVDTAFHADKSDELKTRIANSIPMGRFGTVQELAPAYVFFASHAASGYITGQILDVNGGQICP
Experimental: The activity of SpsADH was determined photometrically by monitoring the increase/decrease of NAD^+/NADH at 340 nm using the Infinite 200 pro photometer (Tecan Group Ltd.). Reactions were performed at 25 C in triplicate using 96-well microtiter plates. For determination of the substrate scope, the reaction mixtures contained 50 mM ammonium bicarbonate, pH 7.9, 0.3 mM NADH (or 1 mM NAD^+), a defined alcohol, aldehyde, aldonic acid or uronic acid as substrate and the purified enzyme. One unit of enzyme activity was defined as the amount of protein that reduces (oxidizes) 1 µmol of NAD(H)/min at […]. Calculation of Michaelis-Menten kinetics for determination of Km and vmax was done with Sigma-Plot 11.0 (Systat Software).

[1] = substrate: O=C(O)[C@@H](O)[C@@H](O)[C@H](O)[C@H](O)CO; assay: purified protein, by the assay type; conditions: other: oxidation of C5/C6 aldonates by SpsADH (Table 3); pH 7.9
[2] = substrate: O=C(O)[C@H](O)[C@@H](O)[C@H](O)[C@H](O)CO; assay: purified protein, by the assay type; conditions: other: oxidation of C5/C6 aldonates by SpsADH (Table 3); pH 7.9
[3] = substrate: O=C(O)[C@@H](O)[C@H](O)[C@H](O)[C@H](O)CO; assay: purified protein, by the assay type; conditions: other: oxidation of C5/C6 aldonates by SpsADH (Table 3); pH 7.9
[4] = substrate: O=C(O)[C@H](O)[C@H](O)[C@H](O)[C@H](O)CO; assay: purified protein, by the assay type; conditions: other: oxidation of C5/C6 aldonates by SpsADH (Table 3); pH 7.9
[5] = substrate: O=C(O)[C@H](O)[C@H](O)[C@H](O)CO; assay: photometric SpsADH enzyme assay, oxidation of substrates (NAD+/NADH at 340 nm); format: biochemical, Sphingomonas species A1; conditions: other: oxidation of C5/C6 aldonates by SpsADH (Table 3); pH 7.9
Experimental: (§1) The activity of SpsADH was determined photometrically by monitoring the increase/decrease of NAD^+/NADH at 340 nm using the Infinite 200 pro photometer (Tecan Group Ltd.). Reactions were performed at 25 C in triplicate using 96-well microtiter plates. For determination of the substrate scope, the reaction mixtures contained 50 mM ammonium bicarbonate, pH 7.9, 0.3 mM NADH (or 1 mM NAD^+), a defined alcohol, aldehyde, aldonic acid or uronic acid as substrate and the purified enzyme. One unit of enzyme activity was defined as the amount of protein that reduces (oxidizes) 1 µmol of NAD(H)/min at 37 °C. Calculation of Michaelis-Menten kinetics for determination of Km and vmax was done with Sigma-Plot 11.0 (Systat Software).

[6] = substrate: O=C(O)[C@@H](O)[C@H](O)[C@H](O)CO; assay: as above; format: biochemical, Sphingomonas species A1; conditions: other: oxidation of C5/C6 aldonates by SpsADH (Table 3); pH 7.9
Experimental: as §1

[7] = substrate: O=C(O)C(=O)C[C@H](O)[C@H](O)CO; assay: as above; format: biochemical, Sphingomonas species A1; conditions: other: oxidation of KDG by SpsADH, 50 mM ammonium bicarbonate pH 7.9, NAD+, 25 C
Experimental: as §1

OC[C@@H](O)[C@@H](O)[C@H](O)[C@@H](O)CO [D-sorbitol]
activity (SpsADH; oxidation by SpsADH, polyol): 1.7 mU/mg
vmax (SpsADH; oxidation of D-sorbitol to L-gulose by SpsADH): 6.2 ± 0.1 mU/mg

O=C(O)C(=O)C[C@H](O)[C@H](O)CO [KDG, 2-keto-3-deoxy-D-gluconate]
oxidative activity (SpsADH; native substrate KDG, result in words): very low oxidative activity

B1: SpsADH (Sphingomonas sp. A1) (protein)
chain: T1 sequence (A0A075B5H4 1-258)
Km [1]: 18.3 ± 1.3 mM
Vmax [1]: 0.52 ± 0.01 U/mg
kcat [1]: 0.26 ± 0.00 s⁻¹
kcat/Km [1]: 13.9 ± 1.2 M⁻¹ s⁻¹
Km [2]: 15.7 ± 1.6 mM
Vmax [2]: 1.28 ± 0.04 U/mg
kcat [2]: 0.63 ± 0.02 s⁻¹
kcat/Km [2]: 40.0 ± 5.4 M⁻¹ s⁻¹
Km [3]: 27.0 ± 4.2 mM
Vmax [3]: 0.32 ± 0.01 U/mg
kcat [3]: 0.16 ± 0.01 s⁻¹
kcat/Km [3]: 5.8 ± 1.2 M⁻¹ s⁻¹
Km [4]: 17.1 ± 2.4 mM
Vmax [4]: 0.28 ± 0.01 U/mg
kcat [4]: 0.14 ± 0.01 s⁻¹
kcat/Km [4]: 8.1 ± 1.4 M⁻¹ s⁻¹
Km [5]: 16.9 ± 1.4 mM
Vmax [5]: 0.01 ± 0.00 U/mg
kcat [5]: 0.01 ± 0.00 s⁻¹
kcat/Km [5]: 0.3 ± 0.1 M⁻¹ s⁻¹
Km [6]: 25.6 ± 2.6 mM
Vmax [6]: 0.01 ± 0.00 U/mg
kcat [6]: 0.01 ± 0.00 s⁻¹
kcat/Km [6]: 0.2 ± 0.0 M⁻¹ s⁻¹
Km [7]: 20.9 ± 3.16 mM
Vmax [7]: 1.81 ± 0.009 U/mg
kcat [7]: 0.89 ± 0.047 s⁻¹
kcat/Km [7]: 42.5 ± 8.68 M⁻¹ s⁻¹
